Experimental data as given in patent publication US20110124572A1, “SYNDECAN-4 IS A REGULATOR OF RAC1-GTP” (priority 2008, published 2011).

Target: p21-binding domain of PAK-1 fused to agarose beads (GST-Pak1-Rac/Cdc42-binding domain), as used in the Rac1 activation kit (UniProt Q13153)
Assay: PAK-1 p21-binding domain (PAK-PKB) pull-down from cell lysate, blot with anti-syndecan-4 or anti-GFP

Sequence of p21-binding domain of PAK-1 fused to agarose beads (GST-Pak1-Rac/Cdc42-binding domain), as used in the Rac1 activation kit (Q13153 67-150 limits assumed): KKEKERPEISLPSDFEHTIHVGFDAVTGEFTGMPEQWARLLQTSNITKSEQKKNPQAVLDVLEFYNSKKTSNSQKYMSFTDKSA

Q: With “wt-syndecan-4-GFP chimera (human syndecan-4, wild type, GFP inserted at position 131) (from UniProt P31431 19-198)” as the substance, how does the amount of pulled-down syndecan-4 against the Ser179Ala line (% less than Ser179Ala line) read?
A: 20
